Results from publication PMC3694778.

Tests used:
[1] = system: CLOCK bHLH-PAS-AB;BMAL1 bHLH-PAS-AB (mouse;mouse); experiment: fluorescence anisotropy competition; settings: not given in the material (Supplementary Methods not held)
[2] = system: CLOCK bHLH-PAS-AB;BMAL1 bHLH-PAS-AB (mouse;mouse); experiment: fluorescence anisotropy; settings: not given in the material (Supplementary Methods not held)

mPer1 E1-box DNA 18-mer, unlabeled was tested, and the Kd [1] was 9 nM.
In the case of mPer2 E2-box DNA 18-mer, unlabeled, the Kd [1] is reported as 13 nM.
mPer2 E2-box DNA, fluorescein labeled showed a Kd [2] of 59 nM.
